Results published in US20230374116A1 (ROSALIND FRANKLIN INSTITUTE, published 2023).

How the values were obtained:
[1] = target: T1, SARS-CoV-2 receptor-binding domain fused to hIgG1 Fc (SARS-CoV-2 (Wuhan/Victoria), UniProt P0DTC2 330-532); assay: SPR, trimer analyte, RBD ligand
[2] = target: T2, Spike protein on live SARS-CoV-2 Victoria strain (SARS-CoV-2 (Victoria), UniProt P0DTC2 14-1273); assay: cell-based or functional assay
[3] = target: T3, SARS-CoV-2 receptor-binding domain (amino acids 330-532), prototypical Wuhan/Victoria (SARS-CoV-2 (Wuhan/Victoria), UniProt P0DTC2 330-532); assay: SPR, VHH analyte over immobilised RBD
[4] = target: T3, SARS-CoV-2 receptor-binding domain …; assay: SPR, VHH analyte, biotinylated RBD ligand
[5] = target: T2, Spike protein on live SARS-CoV-2 …; assay: cell-based or functional assay; remark: listed apart in the source
[6] = target: T1, SARS-CoV-2 receptor-binding domain …; assay: SPR, VHH analyte over immobilised RBD
[7] = target: T1, SARS-CoV-2 receptor-binding domain …; assay: SPR, VHH analyte, RBD-Fc ligand
[8] = target: T3, SARS-CoV-2 receptor-binding domain …; assay: SPR, RBD analyte, VHH_H6-Fc ligand
[9] = target: T3, SARS-CoV-2 receptor-binding domain …; assay: SPR, RBD binding kinetics
[10] = target: T3, SARS-CoV-2 receptor-binding domain …; assay: SPR

B1: A8 trimer (bispecific antibody)
chain: QVQLVESGGGLVQAGGSLRLSCAASGGTFSTAAMGWFRQAPGEERECVASIGWRGVRTWYADSVKGRFTISRDNPQNTVYLQMNNLKSGDTAVYYCAASVGNYGLPWAHFEYDFWGQGIQVTVSSGSGSGSQVQLVESGGGLVQAGGSLRLSCAASGGTFSTAAMGWFRQAPGEERECVASIGWRGVRTWYADSVKGRFTISRDNPQNTVYLQMNNLKSGDTAVYYCAASVGNYGLPWAHFEYDFWGQGIQVTVSSGSGSGSQVQLVESGGGLVQAGGSLRLSCAASGGTFSTAAMGWFRQAPGEERECVASIGWRGVRTWYADSVKGRFTISRDNPQNTVYLQMNNLKSGDTAVYYCAASVGNYGLPWAHFEYDFWGQGTQVTVSSKHHHHHH
- Kd [1]: 0.005 nM
- T1/2 [1]: 4.63 h
- ND 50 MN assay, live virus [2]: 0.09 nM

B2: F2 (VHH)
VHH: QVQLVESGGGLVQAGGSLRLACIASGRTFHSYVMAWFRQAPGKEREFVAAISWSSTPTYYGESVKGRFTISRDNAKNTVYLQMNRLKPEDTAVYFCAADRGESYYYTRPTEYEFWGQGTQVTVSS
notes: also called VHH F2
- Kd [3]: 0.04 nM
- Kd [4]: 0.04 nM

B3: C1 (VHH)
VHH: QVQLVESGGGLVQPGGSLRLSCAASGFTNDFYSIAWFRQAPGKEREGVSWLSVSDNTPTYVDSVKDRFTISRHNANNTVYLQMNMLKPEDTAIYYCAAGRFAGRDTWPSSYDYWGQGTQVTVSS
- Kd [3]: 0.615 nM
- Kd [4]: 0.615 nM

B4: C5 (VHH)
VHH: QVQLVESGGGSVQAGGSLTLSCVASGVTLGRHAIGWFRQAPGKERERVSCIRTFDGITSYVESTKGRFTISSNNAMNTVYLQMNSLKPEDTAVYFCALGVTAACSDNPYFWGQGTQVTVSS
notes: also called VHH C5
- IC50, neutralisation of SARS-CoV2, micro-titre neutralisation assay [5]: 32 nM
- Kd [3]: 0.099 nM
- T1/2 [3]: 0.2 h
- Kd [4]: 0.099 nM
- T1/2 [4]: 0.2 h

B5: B12 (VHH)
VHH: QVQLVESGGGFVQPGGSLRLSCAVSGGTFSTYGMGWFRQAPGKEREIVAAIRRSGSTYYADSVRGRFTISRDNAKNSVLLQMNSLKPEDTAVYYCAARRAGREYEYWGQGTQVTVSS
notes: also called VHH B12
- Kd [6]: 0.077 nM
- T1/2 [6]: 0.7 h
- koff [6]: 0.00027 s⁻¹
- kon [6]: 3.6e+06 M⁻¹ s⁻¹

B6: VHH_H6 (VHH)
VHH: QVQLVESGGGLVQPGGSLTLSCVASESSLAPYRVAWFRQAPGKEREGVSCISRDAHPTSTYYTASVKGRFTMSRDNAKNTVYLQMNSLKPSDTAVYYCATDLGGYCSDSNYPRAWWGQGTQVTVSS
- Kd [7]: 0.472 nM
- T1/2 [7]: 0.517 h

B7: VHH_H6-Fc (Fc fusion)
chain: QVQLVESGGGLVQPGGSLTLSCVASESSLAPYRVAWFRQAPGKEREGVSCISRDAHPTSTYYTASVKGRFTMSRDNAKNTVYLQMNSLKPSDTAVYYCATDLGGYCSDSNYPRAWWGQGTQVTVSS
- Kd [8]: 0.261 nM

B8: C1-SUMO-C5-Fc (Fc fusion)
chain: QVQLVESGGGLVQPGGSLRLSCAASGFTNDFYSIAWFRQAPGKEREGVSWLSVSDNTPTYVDSVKDRFTISRHNANNTVYLQMNMLKPEDTAIYYCAAGRFAGRDTWPSSYDYWGQGTQVTVSSGSGSGSDSEVNQEAKPEVKPEVKPETHINLKVSDGSSEIFFKIKKTTPLRRLMEAFAKRQGKEMDSLRFLYDGIRIQADQTPEDLDMEDNDIIEAHREQIGSGSGSQVQLVESGGGSVQAGGSLTLSCVASGVTLGRHAIGWFRQAPGKERERVSCIRTFDGITSYVESTKGRFTISSNNAMNTVYLQMNSLKPEDTAVYFCALGVTAACSDNPYFWGQGTQVTVSS
notes: also called C1-GSGSGS-SUMO-GSGSGS-C5
- Kd [9]: 0.00163 nM
- T1/2 [9]: 246 h
- koff [9]: 4.9e-05 s⁻¹
- kon [9]: 3e+07 M⁻¹ s⁻¹
- fold increase in affinity on combining the VHHs [10]: ~240 fold

B9: F2-SUMO-C5-Fc (Fc fusion)
chain: QVQLVESGGGLVQAGGSLRLACIASGRTFHSYVMAWFRQAPGKEREFVAAISWSSTPTYYGESVKGRFTISRDNAKNTVYLQMNRLKPEDTAVYFCAADRGESYYYTRPTEYEFWGQGTQVTVSSGSGSGSDSEVNQEAKPEVKPEVKPETHINLKVSDGSSEIFFKIKKTTPLRRLMEAFAKRQGKEMDSLRFLYDGIRIQADQTPEDLDMEDNDIIEAHREQIGSGSGSQVQLVESGGGSVQAGGSLTLSCVASGVTLGRHAIGWFRQAPGKERERVSCIRTFDGITSYVESTKGRFTISSNNAMNTVYLQMNSLKPEDTAVYFCALGVTAACSDNPYFWGQGTQVTVSS
notes: also called F2-GSGSGS-SUMO-GSGSGS-C5
- Kd [9]: 0.00075 nM
- T1/2 [9]: 11 h
- koff [9]: 1.7e-05 s⁻¹
- kon [9]: 2.3e+07 M⁻¹ s⁻¹
- fold increase in affinity on combining the VHHs [10]: ~85 fold

B10: H3 trimer (VHH)
chain: QVQLVESGGGLVKTGGSLRLSCAASGRTFSTYSMGWFRQAPGKEREFVAGMRWTGSSTFYSDSVKGRFTVSRNNAKDTVYLHMNSLKPEDTAVYYCAITTIVRAYYTEYTEADFGSWGQGTQVTVSSGAVLAPQVQLVESGGGLVKTGGSLRLSCAASGRTFSTYSMGWFRQAPGKEREFVAGMRWTGSSTFYSDSVKGRFTVSRNNAKDTVYLHMNSLKPEDTAVYYCAITTIVRAYYTEYTEADFGSWGQGTQVTVSSGSGSGSQVQLVESGGGLVKTGGSLRLSCAASGRTFSTYSMGWFRQAPGKEREFVAGMRWTGSSTFYSDSVKGRFTVSRNNAKDTVYLHMNSLKPEDTAVYYCAITTIVRAYYTEYTEADFGSWGQGTQVTVSS
- Kd [1]: 0.0003 nM
- T1/2 [1]: 5.82 h
- koff [1]: 3.3e-05 s⁻¹
- kon [1]: 1.2e+08 M⁻¹ s⁻¹
- ND 50 MN assay, live virus [2]: 0.4 nM

B11: C1-SUMO-H3-Fc (Fc fusion)
chain: QVQLVESGGGLVQPGGSLRLSCAASGFTNDFYSIAWFRQAPGKEREGVSWLSVSDNTPTYVDSVKDRFTISRHNANNTVYLQMNMLKPEDTAIYYCAAGRFAGRDTWPSSYDYWGQGTQVTVSSGSGSGSDSEVNQEAKPEVKPEVKPETHINLKVSDGSSEIFFKIKKTTPLRRLMEAFAKRQGKEMDSLRFLYDGIRIQADQTPEDLDMEDNDIIEAHREQIGSGSGSQVQLVESGGGLVKTGGSLRLSCAASGRTFSTYSMGWFRQAPGKEREFVAGMRWTGSSTFYSDSVKGRFTVSRNNAKDTVYLHMNSLKPEDTAVYYCAITTIVRAYYTEYTEADFGSWGQGTQVTVS
notes: also called C1-GSGSGS-SUMO-GSGSGS-H3
- Kd [9]: 0.011 nM
- T1/2 [9]: 4.1 h
- koff [9]: 4.7e-05 s⁻¹
- kon [9]: 4.3e+06 M⁻¹ s⁻¹
- fold increase in affinity on combining the VHHs [10]: ~40 fold

B12: C1 trimer (VHH)
chain: QVQLVESGGGLVQPGGSLRLSCAASGFTNDFYSIAWFRQAPGKEREGVSWLSVSDNTPTYVDSVKDRFTISRHNANNTVYLQMNMLKPEDTAIYYCAAGRFAGRDTWPSSYDYWGQGTQVTVSSGSGSGSQVQLVESGGGLVQPGGSLRLSCAASGFTNDFYSIAWFRQAPGKEREGVSWLSVSDNTPTYVDSVKDRFTISRHNANNTVYLQMNMLKPEDTAIYYCAAGRFAGRDTWPSSYDYWGQGTQVTVSSGSGSGSQVQLVESGGGLVQPGGSLRLSCAASGFTNDFYSIAWFRQAPGKEREGVSWLSVSDNTPTYVDSVKDRFTISRHNANNTVYLQMNMLKPEDTAIYYCAAGRFAGRDTWPSSYDYWGQGTQVTVSS
- Kd [1]: 0.053 nM
- T1/2 [1]: 4.03 h
- koff [1]: 4.8e-05 s⁻¹
- kon [1]: 900000 M⁻¹ s⁻¹
- ND 50 MN assay, live virus [2]: 4.9 nM

B13: C1-SUMO-H11-H4-Fc (Fc fusion)
chain: QVQLVESGGGLVQPGGSLRLSCAASGFTNDFYSIAWFRQAPGKEREGVSWLSVSDNTPTYVDSVKDRFTISRHNANNTVYLQMNMLKPEDTAIYYCAAGRFAGRDTWPSSYDYWGQGTQVTVSSGSGSGSDSEVNQEAKPEVKPEVKPETHINLKVSDGSSEIFFKIKKTTPLRRLMEAFAKRQGKEMDSLRFLYDGIRIQADQTPEDLDMEDNDIIEAHREQIGSGSGSQVQLVESGGGLMQAGGSLRLSCAVSGRTFSTAAMGWFRQAPGKEREFVAAIRWSGGSAYYADSVKGRFTISRDKAKNTVYLQMNSLKYEDTAVYYCAQTHYVSYLLSDYATWPYDYWGQGTQVTVSS
notes: also called C1-GSGSGS-SUMO-GSGSGS-H11-H4
- Kd [9]: 0.013 nM
- T1/2 [9]: 2.8 h
- koff [9]: 6.8e-05 s⁻¹
- kon [9]: 5.1e+06 M⁻¹ s⁻¹
- fold increase in affinity on combining the VHHs [10]: ~40 fold

B14: H3 (VHH)
VHH: QVQLVESGGGLVKTGGSLRLSCAASGRTFSTYSMGWFRQAPGKEREFVAGMRWTGSSTFYSDSVKGRFTVSRNNAKDTVYLHMNSLKPEDTAVYYCAITTIVRAYYTEYTEADFGSWGQGTQVTVSS
- Kd [3]: 0.025 nM
- T1/2 [3]: 0.583 h
- Kd [4]: 0.025 nM
- T1/2 [4]: 0.583 h

B15: C5 trimer (VHH)
chain: QVQLVESGGGSVQAGGSLTLSCVASGVTLGRHAIGWFRQAPGKERERVSCIRTFDGITSYVESTKGRFTISSNNAMNTVYLQMNSLKPEDTAVYFCALGVTAACSDNPYFWGQGTQVTVSSGSGSGSQVQLVESGGGSVQAGGSLTLSCVASGVTLGRHAIGWFRQAPGKERERVSCIRTFDGITSYVESTKGRFTISSNNAMNTVYLQMNSLKPEDTAVYFCALGVTAACSDNPYFWGQGTQVTVSSGSGSGSQVQLVESGGGSVQAGGSLTLSCVASGVTLGRHAIGWFRQAPGKERERVSCIRTFDGITSYVESTKGRFTISSNNAMNTVYLQMNSLKPEDTAVYFCALGVTAACSDNPYFWGQGTQVTVSS
notes: also called trimeric C5 nanobody; C5-6GS-C5-6GS-C5
- Kd [1]: 0.018 nM
- T1/2 [1]: 1.53 h
- ND 50 MN assay, live virus [2]: 0.02 nM
